Experimental data reported in patent publication US20230272045A1 (MONASH UNIVERSITY, published 2023).
Where no end group is shown, it is not given here.

T1: human fibrinogen (human, UniProt P02671 20-644; P02675 31-491; P02679 27-437, limits assumed)
T1 construct: Coated on ELISA plates at 100 nM; also called Fg
T1 sequence (looked up) 1: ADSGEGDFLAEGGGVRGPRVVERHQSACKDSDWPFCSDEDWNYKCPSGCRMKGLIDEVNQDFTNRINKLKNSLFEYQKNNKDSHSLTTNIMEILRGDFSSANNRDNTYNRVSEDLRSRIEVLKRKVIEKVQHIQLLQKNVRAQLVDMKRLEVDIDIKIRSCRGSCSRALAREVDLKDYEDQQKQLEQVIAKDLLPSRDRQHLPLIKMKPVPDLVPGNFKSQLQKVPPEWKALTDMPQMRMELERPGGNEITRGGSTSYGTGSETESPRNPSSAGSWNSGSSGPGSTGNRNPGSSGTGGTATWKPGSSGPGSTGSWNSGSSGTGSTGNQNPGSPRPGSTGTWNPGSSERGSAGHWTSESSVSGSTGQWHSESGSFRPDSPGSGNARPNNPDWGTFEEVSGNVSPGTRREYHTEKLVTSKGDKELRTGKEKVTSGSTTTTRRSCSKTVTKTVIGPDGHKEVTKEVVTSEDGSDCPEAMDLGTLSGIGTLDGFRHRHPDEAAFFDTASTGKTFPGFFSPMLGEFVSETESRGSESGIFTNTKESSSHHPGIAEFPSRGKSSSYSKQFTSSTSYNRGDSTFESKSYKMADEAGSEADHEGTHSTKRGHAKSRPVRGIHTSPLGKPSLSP
T1 sequence (looked up) 2: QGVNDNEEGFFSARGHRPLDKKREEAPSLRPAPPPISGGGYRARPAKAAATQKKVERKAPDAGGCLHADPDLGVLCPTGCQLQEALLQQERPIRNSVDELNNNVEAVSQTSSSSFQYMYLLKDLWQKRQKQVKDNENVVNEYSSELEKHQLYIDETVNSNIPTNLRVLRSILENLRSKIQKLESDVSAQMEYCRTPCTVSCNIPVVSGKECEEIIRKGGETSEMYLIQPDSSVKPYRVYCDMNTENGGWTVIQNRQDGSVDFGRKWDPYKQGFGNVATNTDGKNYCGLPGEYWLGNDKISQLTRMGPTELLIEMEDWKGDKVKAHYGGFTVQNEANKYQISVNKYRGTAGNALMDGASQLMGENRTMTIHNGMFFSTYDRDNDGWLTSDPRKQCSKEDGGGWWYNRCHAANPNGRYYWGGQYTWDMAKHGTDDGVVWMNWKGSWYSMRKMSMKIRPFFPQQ
T1 sequence (looked up) 3: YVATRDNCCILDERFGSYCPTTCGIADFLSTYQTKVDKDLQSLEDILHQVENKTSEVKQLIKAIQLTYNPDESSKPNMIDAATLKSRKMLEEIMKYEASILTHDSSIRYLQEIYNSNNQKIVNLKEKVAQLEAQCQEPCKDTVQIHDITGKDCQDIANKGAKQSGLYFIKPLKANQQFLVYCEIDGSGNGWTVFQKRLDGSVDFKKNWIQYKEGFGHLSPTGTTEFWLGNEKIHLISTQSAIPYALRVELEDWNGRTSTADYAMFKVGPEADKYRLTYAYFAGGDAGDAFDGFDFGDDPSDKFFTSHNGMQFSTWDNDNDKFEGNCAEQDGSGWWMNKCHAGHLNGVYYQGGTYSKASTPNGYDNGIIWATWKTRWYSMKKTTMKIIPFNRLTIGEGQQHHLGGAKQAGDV

B1: AREG126-138 fragment (GST-fused construct from pGEX6P-1) (peptide)
chain: RKKKGGKNGKNRR
modifications: also: fused to GST (vector linker letters not given here), letters not given here
notes: Cloned into pGEX6P-1, expressed in E. coli BL21, and purified on GSTrap and His-tag columns; not shown: GST encoded by the expression vector pGEX6P-1; a His tag is implied by purification on a His-tag HP column
B2: IL-1Ra/PIGF123-141 (other)
chain: MNHKVHHHHHHMRPSGKRPCKMQAFRIWDTNQKTFYLRNNQLIAGYLQGPNIKLEEKIDMVPIDLHSVFLGIHGGKLCLSCAKSGDDIKLQLEEVNITDLSKNKEEDKRFTFIRSEKGPTTSFESAACPGWFLCTTLEADRPVSLTNTPEEPLIVTKFYFQEDQRRRPKGRGKRRREKQRPTD
B3: PDGF-BB (murine wild-type platelet-derived growth factor-BB) (ligand, UniProt P31240 82-190, looked up)
chain: SLGSLAAAEPAVIAECKTRTEVFQISRNLIDRTNANFLVWPPCVEVQRCSGCCNNRNVQCRASQVQMRPVQVRKIEIVRKKPIFKKATVTLEDHLACKCETIVTPRPVT
notes: also called wild-type PDGF-BB
B4: neurturin (NRTN) (ligand, UniProt Q99748 96-197, looked up)
chain: ARLGARPCGLRELEVRVSELGLGYASDETVLFRYCAGACEAAARVYDLGLRRLRQRRRLRRERVRAQPCCRPTAYEDEVSFLDAHSRYHTVHELSARECACV
B5: amphiregulin (AREG) (ligand, UniProt P15514 101-198, looked up)
chain: SVRVEQVVKPPQNKTESENTSDKPKRKKKGGKNGKNRRNRKKKNPCNAEFQNFCIHGECKYIEHLEAVTCKCQQEYFGERCGEKSMKTHSMIDSSLSK
B6: NRTN146-157 fragment (GST-fused construct from pGEX6P-1) (peptide)
chain: RRLRQRRRLRRE
modifications: also: fused to GST (vector linker letters not given here), letters not given here
notes: as for B1
B7: Placenta growth factor-2 (PIGF-2) (ligand)
chain: LPAVPPQQWALSAGNGSSEVEVVPFQEVWGRSYCRALERLVDVVSEYPSEVEHMFSPSCVSLLRCTGCCGDENLHCVPVETANVTMQLLKIRSGDRPSYVELTFSQHVRCECRPLREKMKPERRRPKGRGKRRREKQRPTDCHLCGDAVPRR
B8: PDGF-BB/PIGF123-141 (other)
chain: SLGSLAAAEPAVIAECKTRTEVFQISRNLIDRTNANFLVWPPCVEVQRCSGCCNNRNVQCRASQVQMRPVQVRKIEIVRKKPIFKKATVTLEDHLACKCETIVTPRPVTRRRPKGRGKRRREKQRPTD
notes: not shown: 6x histidine tag at the N-terminus
B9: IL-1Ra (murine wild-type interleukin-1 receptor antagonist) (ligand)
chain: MRPSGKRPCKMQAFRIWDTNQKTFYLRNNQLIAGYLQGPNIKLEEKIDMVPIDLHSVFLGIHGGKLCLSCAKSGDDIKLQLEEVNITDLSKNKEEDKRFTFIRSEKGPTTSFESAACPGWFLCTTLEADRPVSLTNTPEEPLIVTKFYFQEDQ
notes: also called wild-type IL-1Ra; IL-1 receptor antagonist
B10: GST-fused PIGF123-141 fragment (peptide)
chain: RRRPKGRGKRRREKQRPTD-6xHis
modifications: not fully specified (N-terminus); also: fused to GST (vector linker letters not given here)
notes: Expressed in E. coli BL21 (DE3), purified on GSTrap and then HisTrap, and used at 100 nM in the ELISA; not shown: glutathione S-transferase (GST) encoded by the expression vector pGEX6P-1; histidine tag (6xHis) added at the C-terminus of the fragment

Experiments:
human plasma fibronectin [1] = biological target: T2, human plasma fibronectin (human, UniProt P02751-8 32-2296, limits assumed); assay: ELISA of fragments
T2 construct: Coated on ELISA plates at 100 nM; also called Fn

human vitronectin [2] = biological target: T3, human vitronectin (human, UniProt P04004 20-478); assay: ELISA of fragments
T3 construct: Coated on ELISA plates at 100 nM; also called Vn

human fibrinogen [3] = biological target: T1, human fibrinogen; assay: ELISA of fragments
human plasma fibronectin [4] = biological target: T2, human plasma fibronectin; assay: ELISA; ECM protein coated at 100 nM, soluble protein 0-100 nM, one-site fit
Experimental: (§1) ELISA plates (Medium binding, Greiner bio-one) were coated with 100 nM of ECM proteins in 50 μl of PBS for 1 h at 37° C.; human plasma fibronectin (Sigma), human vitronectin (Peprotech), human tenascin C (R&D Systems), human fibrinogen (Enzyme Research Laboratories). Then, wells were washed with PBS-T (PBS with 0.05% Tween-20) and blocked with 300 l PBS-T containing 1% BSA for 1 h at room temperature. ECM and control wells (no ECM and blocked with BSA) were further incubated 1 h at room temperature with solutions of murine PDGF-BB (Peprotech), IL-1Ra (R&D Systems), or PIGF₁₂₃₋₁₄₁-fused proteins at concentrations ranging from 0 to 100 nM (50 μl in PBS-T containing 0.1% BSA; PROKEEP tubes, Watson bio lab). Then, wells were washed 3 times with PBS-T and bound PDGF-BB and IL-1Ra variants were detected using biotinylated antibodies in PBS-T containing 0.1% BSA. Antibodies used were from PDGF-BB DuoSet ELISA (R&D Systems, DY8464) for PDGF-BB and IL-1ra/IL-1F3 DuoSet ELISA (R&D Systems, DY480) for IL-1Ra. To calculate the dissociation constants (KD) specific-binding values were fitted with a one site specific binding model using A₄₅₀ nm=Bmax*[growth factors or IL-1Ra variants]/(KD+[growth factors or IL-1Ra variants]).

human vitronectin [5] = biological target: T3, human vitronectin; assay: as above
Experimental: as §1

human tenascin C [6] = biological target: T4, human tenascin C (human, UniProt P24821 23-2201, limits assumed); assay: as above
T4 construct: Coated on ELISA plates at 100 nM; also called TnC; Tnc
Experimental: as §1

human fibrinogen [7] = biological target: T1, human fibrinogen; assay: as above
Experimental: as §1

human plasma fibronectin [8] = biological target: T2, human plasma fibronectin; assay: ELISA, one site specific binding fit
human vitronectin [9] = biological target: T3, human vitronectin; assay: ELISA, one site specific binding fit
human tenascin C [10] = biological target: T4, human tenascin C; assay: ELISA, one site specific binding fit
human fibrinogen [11] = biological target: T1, human fibrinogen; assay: ELISA, one site specific binding fit
human plasma fibronectin [12] = biological target: T2, human plasma fibronectin; assay: ELISA; GST-fused fragment at 100 nM on coated ECM protein, anti-GST detection
Experimental: (§2) ELISA plates (96-Well Medium Binding, Greiner bio-one) were coated with solutions of 100 nM of human plasma fibronectin (Sigma), human vitronectin (Peprotech), human tenascin C (R&D Systems), or human fibrinogen (Enzyme Research Laboratories) in PBS for 1 h at 37° C. Wells were washed with washing buffer (PBS-T, PBS with 0.05% Tween-20) and blocked with 1% BSA in PBS-T for 1 h at room temperature. Then, wells were incubated with 100 nM of GST-fused PIGF fragments (in PBS-T with 0.1% BSA) for 1 h at room temperature. GST (100 nM) was used as negative control. Wells were washed 3 times with washing buffer and incubated with 0.1 μg/ml of HRP-conjugated antibody against GST (GE Healthcare, RPN1236V) in PBS-T with 0.1% BSA for 45 min at room temperature. Wells were washed 3 times with PBS-T and detection was done with tetramethylbenzidine substrate and measurement of the absorbance at 450 nm.

human vitronectin [13] = biological target: T3, human vitronectin; assay: as above
Experimental: as §2

human fibrinogen [14] = biological target: T1, human fibrinogen; assay: as above
Experimental: as §2

T4 sequence (P24821 23-2201 limits assumed): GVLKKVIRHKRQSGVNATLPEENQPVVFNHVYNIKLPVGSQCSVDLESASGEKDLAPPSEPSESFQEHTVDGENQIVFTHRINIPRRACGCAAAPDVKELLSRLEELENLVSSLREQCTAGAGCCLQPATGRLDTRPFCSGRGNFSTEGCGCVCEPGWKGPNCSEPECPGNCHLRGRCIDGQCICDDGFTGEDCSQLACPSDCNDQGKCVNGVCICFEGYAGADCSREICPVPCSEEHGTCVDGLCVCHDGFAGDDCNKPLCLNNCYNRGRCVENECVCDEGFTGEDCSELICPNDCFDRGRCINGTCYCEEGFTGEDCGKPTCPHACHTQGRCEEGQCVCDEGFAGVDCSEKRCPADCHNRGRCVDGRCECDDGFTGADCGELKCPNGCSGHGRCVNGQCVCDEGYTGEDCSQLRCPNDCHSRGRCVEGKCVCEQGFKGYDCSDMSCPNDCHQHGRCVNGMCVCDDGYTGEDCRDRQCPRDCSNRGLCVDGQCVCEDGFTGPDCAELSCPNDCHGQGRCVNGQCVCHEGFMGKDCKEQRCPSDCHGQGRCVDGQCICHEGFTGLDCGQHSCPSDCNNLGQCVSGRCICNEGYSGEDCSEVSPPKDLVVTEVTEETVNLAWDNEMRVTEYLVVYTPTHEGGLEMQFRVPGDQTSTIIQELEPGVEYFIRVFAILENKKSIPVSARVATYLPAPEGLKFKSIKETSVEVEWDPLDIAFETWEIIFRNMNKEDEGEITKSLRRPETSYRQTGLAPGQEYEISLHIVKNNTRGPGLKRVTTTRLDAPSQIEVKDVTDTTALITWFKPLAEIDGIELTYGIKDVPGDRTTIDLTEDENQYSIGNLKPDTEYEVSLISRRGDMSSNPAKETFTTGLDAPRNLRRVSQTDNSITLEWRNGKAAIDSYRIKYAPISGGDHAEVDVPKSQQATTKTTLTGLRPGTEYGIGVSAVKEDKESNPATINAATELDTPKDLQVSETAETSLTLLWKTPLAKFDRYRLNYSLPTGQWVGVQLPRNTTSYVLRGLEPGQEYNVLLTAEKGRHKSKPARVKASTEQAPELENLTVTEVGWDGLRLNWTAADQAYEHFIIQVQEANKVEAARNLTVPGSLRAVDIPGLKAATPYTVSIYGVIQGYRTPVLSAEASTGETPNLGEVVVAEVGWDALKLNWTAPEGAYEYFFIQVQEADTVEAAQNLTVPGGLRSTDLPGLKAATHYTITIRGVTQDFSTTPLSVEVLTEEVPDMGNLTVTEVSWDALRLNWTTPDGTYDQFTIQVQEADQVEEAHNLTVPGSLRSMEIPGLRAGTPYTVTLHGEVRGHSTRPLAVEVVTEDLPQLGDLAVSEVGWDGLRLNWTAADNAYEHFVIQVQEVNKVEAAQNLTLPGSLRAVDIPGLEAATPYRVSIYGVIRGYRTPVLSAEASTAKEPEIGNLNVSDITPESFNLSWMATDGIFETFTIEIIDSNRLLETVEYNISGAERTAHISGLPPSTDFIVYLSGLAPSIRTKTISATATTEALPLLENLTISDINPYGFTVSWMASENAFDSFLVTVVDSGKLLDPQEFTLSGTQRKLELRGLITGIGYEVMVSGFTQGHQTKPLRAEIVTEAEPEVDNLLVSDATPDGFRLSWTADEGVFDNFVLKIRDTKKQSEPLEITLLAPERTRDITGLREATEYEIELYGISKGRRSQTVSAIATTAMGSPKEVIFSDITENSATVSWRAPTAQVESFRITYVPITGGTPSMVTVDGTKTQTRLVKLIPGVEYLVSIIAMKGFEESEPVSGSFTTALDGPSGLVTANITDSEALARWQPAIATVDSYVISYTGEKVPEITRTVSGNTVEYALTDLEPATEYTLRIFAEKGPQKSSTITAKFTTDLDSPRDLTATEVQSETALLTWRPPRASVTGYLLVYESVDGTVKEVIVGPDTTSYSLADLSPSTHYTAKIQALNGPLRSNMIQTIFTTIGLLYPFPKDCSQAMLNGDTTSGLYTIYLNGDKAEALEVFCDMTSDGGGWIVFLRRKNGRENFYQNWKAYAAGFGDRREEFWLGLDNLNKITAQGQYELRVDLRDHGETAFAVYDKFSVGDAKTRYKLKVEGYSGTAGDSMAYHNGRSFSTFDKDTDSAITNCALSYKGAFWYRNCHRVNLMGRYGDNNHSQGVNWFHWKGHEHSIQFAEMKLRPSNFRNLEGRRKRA
T2 sequence (P02751 other isoform, or with tags, fused parts or gaps limits assumed): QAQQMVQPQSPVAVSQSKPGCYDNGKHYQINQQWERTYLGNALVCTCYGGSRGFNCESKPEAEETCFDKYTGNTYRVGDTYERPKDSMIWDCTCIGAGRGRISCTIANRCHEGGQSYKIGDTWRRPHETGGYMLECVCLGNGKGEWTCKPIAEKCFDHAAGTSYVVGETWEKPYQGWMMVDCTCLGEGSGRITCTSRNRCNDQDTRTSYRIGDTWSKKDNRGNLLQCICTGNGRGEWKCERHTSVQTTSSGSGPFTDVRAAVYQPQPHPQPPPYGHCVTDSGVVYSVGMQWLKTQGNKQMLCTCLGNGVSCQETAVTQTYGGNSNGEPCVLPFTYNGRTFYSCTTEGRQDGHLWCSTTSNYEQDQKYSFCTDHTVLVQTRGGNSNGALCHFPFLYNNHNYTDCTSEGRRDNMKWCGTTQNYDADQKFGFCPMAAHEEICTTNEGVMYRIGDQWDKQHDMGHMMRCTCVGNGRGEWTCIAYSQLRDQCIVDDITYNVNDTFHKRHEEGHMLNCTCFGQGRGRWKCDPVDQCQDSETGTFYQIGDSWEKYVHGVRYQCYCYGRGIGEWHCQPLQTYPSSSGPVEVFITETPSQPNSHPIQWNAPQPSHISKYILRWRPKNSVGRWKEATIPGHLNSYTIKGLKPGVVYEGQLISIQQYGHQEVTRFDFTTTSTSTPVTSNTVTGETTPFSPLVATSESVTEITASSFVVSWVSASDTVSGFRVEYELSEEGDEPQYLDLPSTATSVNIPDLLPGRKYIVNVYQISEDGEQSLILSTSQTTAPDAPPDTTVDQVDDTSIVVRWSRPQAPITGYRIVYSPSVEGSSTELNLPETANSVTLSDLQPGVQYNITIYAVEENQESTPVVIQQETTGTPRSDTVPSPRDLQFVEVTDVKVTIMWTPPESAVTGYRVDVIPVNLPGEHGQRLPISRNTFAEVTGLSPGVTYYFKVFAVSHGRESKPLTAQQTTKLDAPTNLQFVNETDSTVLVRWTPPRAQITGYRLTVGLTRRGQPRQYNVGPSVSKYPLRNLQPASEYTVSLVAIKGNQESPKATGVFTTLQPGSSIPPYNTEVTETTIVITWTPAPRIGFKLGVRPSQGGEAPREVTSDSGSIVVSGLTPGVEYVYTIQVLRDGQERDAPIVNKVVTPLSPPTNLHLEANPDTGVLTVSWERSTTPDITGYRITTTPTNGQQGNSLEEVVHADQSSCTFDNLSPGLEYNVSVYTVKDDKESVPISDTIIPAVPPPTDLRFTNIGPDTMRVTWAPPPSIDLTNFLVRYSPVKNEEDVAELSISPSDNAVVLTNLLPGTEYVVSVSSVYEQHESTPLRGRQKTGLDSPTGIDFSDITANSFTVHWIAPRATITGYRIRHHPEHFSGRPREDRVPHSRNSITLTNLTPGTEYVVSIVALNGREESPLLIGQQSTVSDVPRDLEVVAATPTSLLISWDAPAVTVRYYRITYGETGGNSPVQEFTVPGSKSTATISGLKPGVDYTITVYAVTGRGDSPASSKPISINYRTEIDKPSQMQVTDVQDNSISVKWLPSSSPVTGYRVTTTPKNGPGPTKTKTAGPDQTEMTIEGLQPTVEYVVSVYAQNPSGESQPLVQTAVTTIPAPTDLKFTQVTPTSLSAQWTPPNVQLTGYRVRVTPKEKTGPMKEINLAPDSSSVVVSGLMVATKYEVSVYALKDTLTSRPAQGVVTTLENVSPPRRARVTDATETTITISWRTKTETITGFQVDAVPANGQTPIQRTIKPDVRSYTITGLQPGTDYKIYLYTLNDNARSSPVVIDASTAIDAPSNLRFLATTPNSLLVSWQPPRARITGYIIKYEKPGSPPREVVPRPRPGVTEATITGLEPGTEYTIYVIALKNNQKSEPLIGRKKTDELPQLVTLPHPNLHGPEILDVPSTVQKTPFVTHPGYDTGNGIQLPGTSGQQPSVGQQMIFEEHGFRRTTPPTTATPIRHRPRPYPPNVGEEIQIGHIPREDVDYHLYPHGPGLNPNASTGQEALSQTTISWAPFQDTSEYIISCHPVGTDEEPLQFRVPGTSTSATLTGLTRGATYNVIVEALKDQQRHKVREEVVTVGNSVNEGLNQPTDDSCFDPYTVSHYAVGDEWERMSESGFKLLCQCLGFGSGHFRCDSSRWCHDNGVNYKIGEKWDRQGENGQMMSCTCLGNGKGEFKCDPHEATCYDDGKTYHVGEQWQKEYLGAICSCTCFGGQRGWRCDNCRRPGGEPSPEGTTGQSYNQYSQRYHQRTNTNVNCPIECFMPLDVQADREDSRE
T3 sequence (P04004 20-478 limits assumed): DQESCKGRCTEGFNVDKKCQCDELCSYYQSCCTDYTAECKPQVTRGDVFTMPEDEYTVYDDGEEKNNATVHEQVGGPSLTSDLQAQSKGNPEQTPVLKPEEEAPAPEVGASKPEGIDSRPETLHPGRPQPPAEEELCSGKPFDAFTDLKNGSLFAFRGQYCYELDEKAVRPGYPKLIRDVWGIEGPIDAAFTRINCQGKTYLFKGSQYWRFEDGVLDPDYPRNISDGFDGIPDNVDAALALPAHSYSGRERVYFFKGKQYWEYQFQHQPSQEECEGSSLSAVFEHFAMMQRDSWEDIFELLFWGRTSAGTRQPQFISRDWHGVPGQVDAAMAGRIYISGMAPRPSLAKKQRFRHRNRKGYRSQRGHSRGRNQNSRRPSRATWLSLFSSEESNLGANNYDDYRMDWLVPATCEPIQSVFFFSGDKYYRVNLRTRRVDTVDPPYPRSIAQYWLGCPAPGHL

Binder	Kd (human plasma fibronectin [4])	Kd (human vitronectin [5])	Kd (human tenascin C [6])	Kd (human fibrinogen [7])	Kd (human plasma fibronectin [8])	Kd (human vitronectin [9])	other results
B1	–	–	–	–	–	–	binding result (human plasma fibronectin [1]): binds; binding result (human vitronectin [2]): binds; binding result (human fibrinogen [3]): binds
B2	21.9 nM	0.7 nM	20.7 nM	43.5 nM	–	–	–
B3	67.5 nM	32.1 nM	94.3 nM	206 nM	–	–	–
B4	–	–	–	–	50.1 nM	27.6 nM	–
B5	–	–	–	–	8.6 nM	13.8 nM	Kd (human tenascin C [10]): 36.8 nM; Kd (human fibrinogen [11]): 8.2 nM
B6	–	–	–	–	–	–	binding result (human plasma fibronectin [1]): binds; binding result (human vitronectin [2]): binds; binding result (human fibrinogen [3]): binds
B7	–	–	–	–	11.6 nM	13.9 nM	Kd (human tenascin C [10]): 16.6 nM; Kd (human fibrinogen [11]): 9.9 nM
B8	17.7 nM	1.4 nM	25 nM	16.7 nM	–	–	–
B9	129 nM	73.2 nM	113 nM	663 nM	–	–	–
B10	–	–	–	–	–	–	binding result (human plasma fibronectin [12]): binds; binding result (human vitronectin [13]): binds; binding result (human fibrinogen [14]): binds
